# Values quoted from earlier work in article PMC6628625.
# Like-named read-outs stand apart in the source and are kept apart here.
# Tests used:
# [1] = molecular target: calmodulin (Homo sapiens) (UniProt P0DP23)
# [2] = molecular target: calmodulin (Homo sapiens) (UniProt P0DP23); remark: listed apart in the source
substance,measurement,setting,value
EF (edema factor) (from UniProt P40136),Kd,[1],20 nM
AC (adenylate cyclase toxin) (from UniProt P0DKX7),Kd,[2],0.2 nM
